Where “and” joins values, the source holds several entries; their conditions need not be identical. Equal entries are not always repeated.
B1: LIS1, wild-type (natural protein)
chain: MVLSQRQRDELNRAIADYLRSNGYEEAYSVFKKEAELDVNEELDKKYAGLLEKKWTSVIRLQKKVMELESKLNEAKEEFTSGGPLGQKRDPKEWIPRPPEKYALSGHRSPVTRVIFHPVFSVMVSASEDATIKVWDYETGDFERTLKGHTDSVQDISFDHSGKLLASCSADMTIKLWDFQGFECIRTMHGHDHNVSSVAIMPNGDHIVSASRDKTIKMWEVQTGYCVKTFTGHREWVRMVRPNQDGTLIASCSNDQTVRVWVVATKECKAELREHEHVVECISWAPESSYSSISEATGSETKKSGKPGPFLLSGSRDKTIKMWDVSTGMCLMTLVGHDNWVRGVLFHSGGKFILSCADDKTLRVWDYKNKRCMKTLNAHEHFVTSLDFHKTAPYVVTGSVDQTVKVWECR
B2: Ndl1, full-length, with C-terminal FLAG-SNAPf (natural protein)
chain: MVPNLDLETAIQIISSLETQLSELEGATKEYENDLEQVISKLKSDLLESQQQNKCNKKQITDLEIQVDELENENIQLRNKIETLQLESDRRLERNVLLEHELLDTKEALQKLRVSKEEATSGETRRNTRSLPSQNKKMKLFKDTIKVSTTSSTLYLQNMAKTNNAARSHCNIPNTQITQSTVIATTSSV
modifications: JFX554 or JFX650 SNAP-tag ligand on the SNAPf tag
B3: Nip100^CC1 (Nip100 coiled-coil, residues 97-377) with eGFP (domain or fragment)
chain: EHSLLNGNAAQETIKNLQVKCESLASKLNKIKIENHELKTSVEKLSTNETVLLSKISRLDKLVKELKVENGNMKTHLDNFNHLLDASDSVMAPDLDKGTLLERSHLLQGLLDQTKLSYDKAMKVQEDLLEENTQLLEENAVLSKKISDLGLQLQQTNNTIGDLALQIEAQSKSSNIVDKLTNDNILLTSNIKALNNELEELQAKEKLDENLRITYEQLEQELRLQLSNLQSALENEKEIAGTYIEENSRLKATLESIEAKTSHKFQSLELKVNTLQEELYQ
B4: Pac1, full-length, with C-terminal FLAG-SNAPf (natural protein)
chain: MTNWQQQLPLTDTQKNELDKSVLRYLNWNYKQTVRHEHAQDYESVRHAIVTLSGFLLQESVDRQEFISNNDTSNESMVDIDELLLPKKWNSIVRLQKKIIELEQNTETLVSQIKDLNTQVSELAQFKPTTSNGTSAHNVLKWIPRNLPSCLINVESSVTSVKLHPNLPIVFVATDHGKLYAFDLFNYTIPLASLQSHTKAITSMDVLFTNYTNSSKKNYLVIVTASKDLQIHVFKWVSEECKFQQIRSLLGHEHIVSAVKIWQKNNDVHIASCSRDQTVKIWDFHNGWSLKTFQPHSQWVRSIDVLGDYIISGSHDTTLRLTHWPSGNGLSVGTGHEFPIEKVKFIHFIEDSPEIRFRTPSTDRYKNWGMQYCVSASRDRTIKIWEIPLPTLMAHRAPIPNPTDSNFRCVLTLKGHLSWVRDISIRGQYLFSCADDKSVRCWDLNTGQCLHVWEKLHTGFVNCLDLDVDFDSNVTPRQMMVTGGLDCKSNVFMR
modifications: SNAP-tag ligand dye on the SNAPf tag where labelled
B5: Ndel1^CC (human Ndel1 coiled-coil domain, residues 1-195), as used in Figure 4 (domain or fragment)
chain: MDGEDIPDFSSLKEETAYWKELSLKYKQSFQEARDELVEFQEGSRELEAELEAQLVQAEQRNRDLQADNQRLKYEVEALKEKLEHQYAQSYKQVSVLEDDLSQTRAIKEQLHKYVRELEQANDDLERAKRATIVSLEDFEQRLNQAIERNAFLESELDEKESLLVSVQRLKDEARDLRQELAVRERQQEVTRKSA
B6: Ndl1^CC (Ndl1 coiled-coil domain, residues 2-132) (domain or fragment)
chain: VPNLDLETAIQIISSLETQLSELEGATKEYENDLEQVISKLKSDLLESQQQNKCNKKQITDLEIQVDELENENIQLRNKIETLQLESDRRLERNVLLEHELLDTKEALQKLRVSKEEATSGETRRNTRSLP

Tests used:
[1] = biological target: B5; assay: mass photometry
[2] = biological target: yeast dynein complex, wild-type (WT) (S. cerevisiae, UniProt P36022;P40960;Q04949;Q02647, HaloTag or SNAP ligand dye on the tag); assay: TIRF microscopy microtubule recruitment assay
yeast dynein complex, wild-type (WT), sequence (P36022 whole entry, chain 1 of 4): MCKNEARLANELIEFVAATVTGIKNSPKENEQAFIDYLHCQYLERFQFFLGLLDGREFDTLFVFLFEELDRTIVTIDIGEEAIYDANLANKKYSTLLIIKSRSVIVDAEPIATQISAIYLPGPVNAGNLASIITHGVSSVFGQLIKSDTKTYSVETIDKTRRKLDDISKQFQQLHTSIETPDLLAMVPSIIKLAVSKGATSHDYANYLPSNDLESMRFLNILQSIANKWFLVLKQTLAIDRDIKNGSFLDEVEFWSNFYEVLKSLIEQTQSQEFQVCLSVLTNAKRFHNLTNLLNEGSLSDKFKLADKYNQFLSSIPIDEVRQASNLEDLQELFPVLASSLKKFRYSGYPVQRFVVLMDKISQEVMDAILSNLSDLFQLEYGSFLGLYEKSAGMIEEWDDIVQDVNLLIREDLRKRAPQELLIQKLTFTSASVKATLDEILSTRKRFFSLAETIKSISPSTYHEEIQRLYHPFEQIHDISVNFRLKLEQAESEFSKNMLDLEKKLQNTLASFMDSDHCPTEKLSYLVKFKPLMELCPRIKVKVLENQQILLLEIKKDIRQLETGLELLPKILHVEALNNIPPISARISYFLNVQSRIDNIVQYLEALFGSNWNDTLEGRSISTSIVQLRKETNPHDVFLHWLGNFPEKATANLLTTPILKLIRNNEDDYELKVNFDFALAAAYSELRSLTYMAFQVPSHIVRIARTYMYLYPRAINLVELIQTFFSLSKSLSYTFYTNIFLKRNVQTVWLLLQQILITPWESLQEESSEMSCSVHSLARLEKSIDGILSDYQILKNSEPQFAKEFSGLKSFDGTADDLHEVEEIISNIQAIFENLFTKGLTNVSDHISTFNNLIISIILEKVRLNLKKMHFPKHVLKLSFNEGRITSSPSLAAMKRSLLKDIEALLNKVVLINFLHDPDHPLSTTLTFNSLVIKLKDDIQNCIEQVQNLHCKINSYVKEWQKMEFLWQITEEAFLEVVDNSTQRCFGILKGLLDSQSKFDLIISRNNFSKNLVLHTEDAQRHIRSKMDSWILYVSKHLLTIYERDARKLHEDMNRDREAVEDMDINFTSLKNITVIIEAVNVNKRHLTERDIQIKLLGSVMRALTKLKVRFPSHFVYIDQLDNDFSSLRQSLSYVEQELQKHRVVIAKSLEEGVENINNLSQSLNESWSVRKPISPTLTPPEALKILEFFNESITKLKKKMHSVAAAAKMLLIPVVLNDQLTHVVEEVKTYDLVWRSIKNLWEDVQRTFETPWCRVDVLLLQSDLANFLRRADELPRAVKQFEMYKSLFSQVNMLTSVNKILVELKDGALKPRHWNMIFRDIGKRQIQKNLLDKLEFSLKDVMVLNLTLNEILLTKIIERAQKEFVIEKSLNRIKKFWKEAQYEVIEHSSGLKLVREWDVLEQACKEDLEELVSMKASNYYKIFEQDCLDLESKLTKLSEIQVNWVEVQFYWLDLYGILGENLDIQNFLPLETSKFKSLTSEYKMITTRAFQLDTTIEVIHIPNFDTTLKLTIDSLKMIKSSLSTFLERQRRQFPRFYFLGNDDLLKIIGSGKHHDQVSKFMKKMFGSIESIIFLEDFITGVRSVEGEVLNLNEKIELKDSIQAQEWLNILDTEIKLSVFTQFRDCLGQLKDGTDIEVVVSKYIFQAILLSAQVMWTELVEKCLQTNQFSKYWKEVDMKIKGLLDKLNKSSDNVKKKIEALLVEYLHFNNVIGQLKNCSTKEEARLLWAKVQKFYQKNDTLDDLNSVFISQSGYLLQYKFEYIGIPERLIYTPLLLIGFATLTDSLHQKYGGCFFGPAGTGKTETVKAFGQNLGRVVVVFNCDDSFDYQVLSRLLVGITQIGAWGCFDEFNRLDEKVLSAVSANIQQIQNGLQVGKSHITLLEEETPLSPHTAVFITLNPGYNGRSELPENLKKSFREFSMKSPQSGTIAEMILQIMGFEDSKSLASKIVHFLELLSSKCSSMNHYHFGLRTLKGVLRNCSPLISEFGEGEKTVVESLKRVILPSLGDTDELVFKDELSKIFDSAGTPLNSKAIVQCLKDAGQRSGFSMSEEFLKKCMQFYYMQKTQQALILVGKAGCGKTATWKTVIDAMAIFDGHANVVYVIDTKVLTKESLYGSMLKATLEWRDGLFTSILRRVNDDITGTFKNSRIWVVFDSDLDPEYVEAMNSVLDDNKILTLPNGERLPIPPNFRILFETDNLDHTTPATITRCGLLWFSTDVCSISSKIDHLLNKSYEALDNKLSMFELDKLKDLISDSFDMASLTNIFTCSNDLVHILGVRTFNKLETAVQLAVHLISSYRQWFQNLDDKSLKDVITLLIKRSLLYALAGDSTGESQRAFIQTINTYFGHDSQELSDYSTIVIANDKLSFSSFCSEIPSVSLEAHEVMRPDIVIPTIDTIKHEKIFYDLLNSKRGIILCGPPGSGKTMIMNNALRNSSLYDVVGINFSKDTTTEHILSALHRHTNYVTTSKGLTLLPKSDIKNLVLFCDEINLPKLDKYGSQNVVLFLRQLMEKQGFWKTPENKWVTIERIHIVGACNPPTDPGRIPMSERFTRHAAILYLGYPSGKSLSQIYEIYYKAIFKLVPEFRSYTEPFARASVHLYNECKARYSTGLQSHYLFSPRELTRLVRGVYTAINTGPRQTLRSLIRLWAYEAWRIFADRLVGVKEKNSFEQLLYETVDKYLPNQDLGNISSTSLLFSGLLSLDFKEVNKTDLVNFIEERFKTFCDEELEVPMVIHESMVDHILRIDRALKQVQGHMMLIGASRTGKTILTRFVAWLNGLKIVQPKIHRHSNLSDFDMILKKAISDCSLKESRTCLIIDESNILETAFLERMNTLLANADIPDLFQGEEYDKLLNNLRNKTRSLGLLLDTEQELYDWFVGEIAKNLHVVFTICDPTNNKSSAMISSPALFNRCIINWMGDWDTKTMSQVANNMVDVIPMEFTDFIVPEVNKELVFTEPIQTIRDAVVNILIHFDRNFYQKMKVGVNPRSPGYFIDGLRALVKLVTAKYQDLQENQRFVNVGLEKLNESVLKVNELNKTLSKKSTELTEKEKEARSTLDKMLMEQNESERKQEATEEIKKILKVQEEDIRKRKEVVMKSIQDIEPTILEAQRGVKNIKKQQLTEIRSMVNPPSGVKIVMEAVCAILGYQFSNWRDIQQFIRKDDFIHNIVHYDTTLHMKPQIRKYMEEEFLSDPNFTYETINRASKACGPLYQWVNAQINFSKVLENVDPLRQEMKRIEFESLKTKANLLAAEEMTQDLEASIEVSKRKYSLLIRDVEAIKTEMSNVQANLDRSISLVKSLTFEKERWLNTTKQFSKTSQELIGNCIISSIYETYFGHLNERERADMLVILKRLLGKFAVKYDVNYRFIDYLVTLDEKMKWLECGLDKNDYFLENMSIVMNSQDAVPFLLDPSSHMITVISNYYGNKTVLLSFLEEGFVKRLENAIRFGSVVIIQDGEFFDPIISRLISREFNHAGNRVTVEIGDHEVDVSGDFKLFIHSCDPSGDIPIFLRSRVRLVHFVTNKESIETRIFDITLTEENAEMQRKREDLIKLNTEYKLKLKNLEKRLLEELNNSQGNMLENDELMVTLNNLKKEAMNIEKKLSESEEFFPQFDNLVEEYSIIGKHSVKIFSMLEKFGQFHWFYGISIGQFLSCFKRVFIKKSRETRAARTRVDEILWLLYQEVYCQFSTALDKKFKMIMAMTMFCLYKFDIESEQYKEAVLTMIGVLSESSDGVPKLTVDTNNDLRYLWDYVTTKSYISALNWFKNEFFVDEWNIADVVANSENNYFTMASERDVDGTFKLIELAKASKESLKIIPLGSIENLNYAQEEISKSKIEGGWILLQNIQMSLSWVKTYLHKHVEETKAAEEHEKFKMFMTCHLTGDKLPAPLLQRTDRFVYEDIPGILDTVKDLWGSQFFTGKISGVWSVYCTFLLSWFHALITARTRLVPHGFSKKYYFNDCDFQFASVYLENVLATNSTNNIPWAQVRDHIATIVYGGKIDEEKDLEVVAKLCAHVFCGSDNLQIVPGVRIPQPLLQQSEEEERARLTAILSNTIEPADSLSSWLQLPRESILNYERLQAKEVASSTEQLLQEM
yeast dynein complex, wild-type (WT), sequence (P40960 whole entry, chain 2 of 4): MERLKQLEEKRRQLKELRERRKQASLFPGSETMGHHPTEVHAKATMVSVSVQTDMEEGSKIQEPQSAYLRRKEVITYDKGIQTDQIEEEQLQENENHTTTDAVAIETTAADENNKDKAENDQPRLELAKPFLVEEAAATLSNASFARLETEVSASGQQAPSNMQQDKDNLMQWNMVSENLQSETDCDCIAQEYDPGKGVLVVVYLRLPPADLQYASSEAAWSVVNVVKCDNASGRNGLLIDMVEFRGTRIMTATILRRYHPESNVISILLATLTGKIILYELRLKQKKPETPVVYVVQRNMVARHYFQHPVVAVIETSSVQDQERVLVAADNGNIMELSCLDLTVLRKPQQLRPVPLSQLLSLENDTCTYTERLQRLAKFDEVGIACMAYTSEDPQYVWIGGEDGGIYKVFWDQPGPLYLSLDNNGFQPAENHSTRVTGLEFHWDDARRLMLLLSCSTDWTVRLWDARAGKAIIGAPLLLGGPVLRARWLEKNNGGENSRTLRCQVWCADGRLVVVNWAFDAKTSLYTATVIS
yeast dynein complex, wild-type (WT), sequence (Q04949 whole entry, chain 3 of 4): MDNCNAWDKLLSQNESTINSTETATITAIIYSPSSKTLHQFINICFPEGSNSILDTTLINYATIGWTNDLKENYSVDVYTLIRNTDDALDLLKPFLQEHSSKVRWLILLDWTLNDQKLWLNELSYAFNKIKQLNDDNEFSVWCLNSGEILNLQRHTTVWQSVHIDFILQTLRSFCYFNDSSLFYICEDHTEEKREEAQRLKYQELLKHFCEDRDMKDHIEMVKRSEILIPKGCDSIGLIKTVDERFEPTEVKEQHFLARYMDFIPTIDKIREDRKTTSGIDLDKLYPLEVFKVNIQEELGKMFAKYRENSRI
yeast dynein complex, wild-type (WT), sequence (Q02647 whole entry, chain 4 of 4): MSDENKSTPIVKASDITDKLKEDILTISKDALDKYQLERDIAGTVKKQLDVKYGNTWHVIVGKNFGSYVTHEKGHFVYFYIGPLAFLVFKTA

[3] = biological target: B6; assay: mass photometry
[4] = biological target: the molecule itself; assay: mass photometry
[5] = biological target: yeast dynein^ΔICN complex (S. cerevisiae, UniProt P36022;P40960;Q04949;Q02647, HaloTag or SNAP ligand dye on the tag); assay: TIRF microscopy microtubule recruitment assay

Binder	binding result [2]	stoichiometry N [4]	also measured
B1	–	–	stoichiometry N [1]: 1
B2	binds	–	–
B3	binds	–	–
B4	binds	2	stoichiometry N [3]: 1 and 2 Pac1:Ndl1; binding result [5]: binds
B5	–	2	–
B6	binds	2	–

Reference: PMC9882231 (bioRxiv, 2023)
